Experimental findings from paper PMC5264208 are described below.

The target in assay [1] is T1, pentameric C-reactive protein (human), P02741.
T1 chain: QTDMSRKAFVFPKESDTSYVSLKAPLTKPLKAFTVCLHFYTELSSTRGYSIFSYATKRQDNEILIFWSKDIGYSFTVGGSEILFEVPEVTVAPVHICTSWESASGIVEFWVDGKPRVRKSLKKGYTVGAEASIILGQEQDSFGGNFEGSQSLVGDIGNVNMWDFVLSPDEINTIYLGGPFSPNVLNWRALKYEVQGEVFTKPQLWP
The assay can be described thus: native gel or EMSA; BN-PAGE (4-16% Bis-Tris) of pCRP (40 ug/ml) pelleted with liposomes or microvesicles after 1 h at 37 °C in 25 mM Tris-HCl pH 7.4, 150 mM NaCl, 2 mM CaCl2; pCRP and mCRP controls beside it. Particulars: remark: other sources report otherwise.

In assay [2] the target is T2, tissue-deposited CRP (human (endogenous in burn wound, skeletal muscle and carotid plaque tissue)), P02741.
T2 chain: T1 chain
Kind of assay: native gel or EMSA; SDS-PAGE with 1/20 of the usual SDS content (8-13% gels), burn wound lysates loaded in native buffer; control pCRP and mCRP beside them; Western blot with anti-CRP-8. Particulars: remark: other sources report otherwise. Background: A gel shift assay detects complexes by their altered migration in electrophoresis.

B1: pentameric C-reactive protein, P02741 19-224 (natural protein)
chain: T1 chain
As usually defined, the stoichiometry N is the number of molecules, sites or subunits per partner or assembly. As to B1, in assay [1], the stoichiometry N was found to be 5.

B2: tissue-deposited CRP, P02741 19-224 (natural protein)
chain: T1 chain
B2 yielded a stoichiometry N in assay [2] of 5.
